Source: paper PMC6400067

Biological target: phosphoenolpyruvate carboxylase (Ppc; cce_3822) (Cyanothece ATCC 51142 (endogenous in the cells))
Experiment: SEC

Rapp (Mapp / Mmono): 4.6
Substance: phosphoenolpyruvate carboxylase (Ppc; cce_3822) (enzyme)
